Among the data in patent US20260053903A1 are uptake of fluorophore-labeled VLPs by moDCs over 30 min (flow cytometry) (fold against PE-OvaI/II) values, retold here.

For the assay, the target named is dendritic cell-specific intercellular adhesion molecule-3-grabbing nonintegrin (DC-SIGN) (UniProt Q9NNX6). Nature of the assay: cell-based or functional assay.
UniProt Q9NNX6, sequence (Q9NNX6 whole entry): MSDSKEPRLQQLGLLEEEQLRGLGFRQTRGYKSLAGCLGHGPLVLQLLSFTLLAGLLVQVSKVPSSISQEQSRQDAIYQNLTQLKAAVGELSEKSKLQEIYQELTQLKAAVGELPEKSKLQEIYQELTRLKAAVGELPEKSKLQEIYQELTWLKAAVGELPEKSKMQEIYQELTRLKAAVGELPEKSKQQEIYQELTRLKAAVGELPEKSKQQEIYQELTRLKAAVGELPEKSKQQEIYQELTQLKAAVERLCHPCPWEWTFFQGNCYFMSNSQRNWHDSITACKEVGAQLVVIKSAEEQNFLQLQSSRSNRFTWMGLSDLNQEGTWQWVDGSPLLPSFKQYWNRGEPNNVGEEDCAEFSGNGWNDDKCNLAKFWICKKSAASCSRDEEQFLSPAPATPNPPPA

Substance “Man-OvaI/II (combination of particles PP7-Man900-OvaI100 and PP7-Man900-OvaII100) (from UniProt P03630 2-127)” registered an uptake of fluorophore-labeled VLPs by moDCs over 30 min (flow cytometry) (fold against PE-OvaI/II) of 5.
